No end group written: not given here.

The results in this text go back to patent publication US8535680B2, “Anti-LPS factor from Parietaria judaica and methods of use thereof” (Consiglio Nazionale Delle Ricerche, priority 2008, dated 2013).

The subject of data set [1] is HeLa cells. Description: Cytotoxicity test with HeLa cells (MTS, CellTiter 96 AQueous One). Type of data set: cell-based, human. To be noted: 0.5-5-50 μg/ml, 48 h; FIG. 5. On the procedure:
FIG. 5: Cytotoxicity test carried out with HeLa cells in culture. The assay describes the bioreduction of MTS (Owen's Reagent) produced by enzymes having dehydrogenase activity present in metabolically active cells.
The cytotoxity tests were carried out on HeLa cell lines growing in adhesion. Cell lines were maintained in RPMI 1640 culture medium containing 10% fetal calf serum and 0.1% antibiotics (penicillin, streptomycin and gentamycin); cultivated under humid 5% CO2 atmosphere at 37° C. To carry out the cytotoxicity test, the system CellTiter 96 AQueous One Solution Cell Proliferation Assay by Promega was used. In short, Hela cells were resuspended in a 100 μl volume of medium at a concentration of 10,000 cells/ml, then seeded on 96-well flat bottom plates and left to adhere in incubator at 37° C. for 3 h. Thereafter, Par37 peptide was added at increasing concentrations (0.5-5-50 μg/ml). The plate was incubated at 37° C. in 5% CO2 for further 48 h. Then 20 μl of CellTiter 96 AQueous One Solution reagent were added. Cells were thus incubated for 1 h at 37° C. in a CO2 incubator. The test was carried out in triplicate and compared to a row of blanks containing exclusively culture medium. After incubation, a spectrophotometer reading was carried out, measuring absorbance at 490 nm.

In data set [2] the test system is human erythrocytes. The data set is described as follows: Hemolysis test. Type of data set: cell-based. To be noted: 0.0025-0.025-0.25-2.5-25 mM; 6% erythrocytes; reading at 415 nm; FIG. 6. On the procedure:
FIG. 6: Hemolysis test with human erythrocytes. The assay is capable of describing possible hemolysis induced after incubation with Par37 peptide at different concentrations. There were used 1×PBS as negative control and 0.1% Triton X100 as positive control. Optical Densities measured at […] indicate hemoglobin release in the medium following cell lysis.
For the hemolysis test, peripheral blood, collected from a donor, in heparin was used. A solution of 6% human erythrocytes was prepared. Erythrocyte concentration was controlled by reading the optical density of an hemolysate of the cell suspension thus made: 0.5 ml blood+7 ml distilled water should give a reading of 0.7 O.D. at the spectrophotometer at 541 nm. Erythrocytes were incubated in triplicate with an increasing concentration of Par37 (0.0025-0.025-0.25-2.5-25 mM) and with 1×PBS as negative control and a 0.1% solution of Triton X100 as positive control. Sample reading was carried out at 415 nm.

Data set [3] deals with heparinised blood from Pj allergic subjects. The data set is described as follows: Histamine release from blood of Pj allergic patients. Type of data set: cell-based, human. The settings on record: 0.0001 to 1 μg/ml; Pj allergic subjects n=5; FIG. 9. On the procedure:
FIG. 9: Testing of histamine release from blood of Pj allergic patients. The antigens used were: rParj1 (line with squares, denominated Pj1) and the Par37 peptide (line with triangles). On the x-axis the amounts of protein used, and on the y-axis the percentage of histamine released with respect to the percentage of total histamine present in the patient's mastocytes are reported.
The histamine release assay was carried out by using heparinised blood from Pj allergic subjects (n=5) and an allergen concentration scale ranging from 0.0001 and 1 μg/ml. Release protocol was carried out as previously described (Colombo, P., et al., Identification of an immunodominant IgE epitope of the Parietaria Judaica major allergen. J. Immunol, 1998. 160(6): p. 2780-5). The data reported in FIG. 9 show the percentage of release obtained after stimulation with Parj1 allergen.

The subject of data set [4] is LPS (Escherichia coli, serotype 026:B6). Type of data set: binding.
The test system of data set [5] is PBMC from Pj allergic patients and non-allergic subjects. Description: PBMC proliferation (Cell Proliferation ELISA, BrdU). Type of data set: cell-based, human. The settings on record: 0.1, 1 and 10 μg/ml, 5 days; 3 Pj allergic patients and 3 non-allergic subjects; FIG. 7. How it is done: FIG. 7: Analysis of PBMC proliferation of 3 Pj allergic patients and 3 healthy subjects. Stimulation was conducted by adding to the culture medium rParj1 and Par37 synthetic peptide at a concentration of 0.1, 1 and 10 μg/ml. Numerical values on the y-axis indicate proliferation indexes with respect to the unstimulated sample. White histograms identify PBMC stimulated by Parj1, black histograms identify PBMC stimulated by Par37 peptide. Horizontal bars indicate significance values (values above the bar indicate a positive stimulation; values below the bar indicate absence of proliferation).
PBMC from Pj allergic patients (n=3) and non-allergic subjects (n=3) were purified by Ficoll gradient and resuspended in complete RPMI (10% AB serum). Cells were stimulated 5 days with 0.1, 1 and 10 μg/ml rParj1 and Par37. For the determination of stimulation indexes, cells were treated according to what described in the Cell Proliferation ELISA kit, BrdU (colorimetric) (Roche).
In general terms: An ELISA detects its analyte on a solid surface through an enzyme-linked reagent.

Data set [6] has as its system PBMC of non-allergic subjects. Description: ELISA of IFN-γ release from PBMC stimulated with the antigen itself. To be noted: 1 and 10 μg/ml; healthy subjects n=4; FIG. 8.
Protocol: Black bars indicate the values of the unstimulated sample (negative control), checkered bars the values of cells stimulated by rParj1.01, white bars the values obtained from cells stimulated by Par37 peptide.
(IFN-γ) cytokine production in supernatants after stimulation with the various antigens was evaluated by ELISA, using commercial kits and following the manufacturers' (GE healthcare, IFNg, Human, Biotrak) instructions.

For the molecule “LPVSLRHGPVTGPSDPAHKARLERPQIRVPPPAPEKA [Par37]”, the “toxic effect on HeLa cells (MTS bioreduction, absorbance 490 nm)” value in data set [1] is recorded as “no toxic effect”. Also, in data set [2], the “hemolytic effect on human erythrocytes” value is given as “no hemolytic effect”. The “histamine release (anaphylactic activity)” value in data set [3] is given as “no histamine release is observed”.

B1: QETCGTMVRALMPCLPFVQGKEKEPSKGCCSGAKRLDGETKTGPQRVHACECIQTAMKTYSDIDGKLVSEVPKHCGIVDSKLPPIDVNMDCKTVGVVPRQPQLPVSLRHGPVTGPSDPAHKARLERPQIRVPPPAPEKA (protein)
chain: QETCGTMVRALMPCLPFVQGKEKEPSKGCCSGAKRLDGETKTGPQRVHACECIQTAMKTYSDIDGKLVSEVPKHCGIVDSKLPPIDVNMDCKTVGVVPRQPQLPVSLRHGPVTGPSDPAHKARLERPQIRVPPPAPEKA
notes: Recombinant isoform of Parietaria judaica major allergen Parj1, 139 aa, containing the Par37 region
Regarding B1, the LPS-binding capability entry in data set [4] (FIG. 3, native isoforms of Parj1) is “has the LPS-binding capability”. Also, the “lowest dilution with positive reaction to the endotoxin in the LAL test (endpoint)” value in data set [4] (eluate of HisTrap column loaded with 100 μg protein, then 100 μg LPS, LAL sensitivity 0.12 EU) is 1/256. For the same molecule, the “cell proliferation (lymphoproliferative activity) of PBMC” value in data set [5] is recorded as “capable of inducing cell proliferation in all allergic patients”. In addition, in data set [6], the “IFN-γ release from PBMC induced by the antigen itself” value is reported as “impressive secretion of cytokine”.
